{"source": "the supplement of paper PMC10567573", "parents": {"B1": {"name": "ZBTB22 (parent)", "chain": "FSSSSQEAFAASAVGSGERRGGGP"}}}
{"variants_of": "B1", "assay": "protein stability index of a GFP-peptide fusion (GPS, HEK-293T) (PSI 1-6); higher = more stable", "conditions": "c terminus: a fixed tail appended"}
{"variant": "FSSSSQEAFAASAVTSGERRGGGP", "note": "[G15T]", "protein stability index": 3.12}
{"variant": "FSSSSQEAFAASAVCSGERRGGGP", "note": "[G15C]", "protein stability index": 2.94}
{"variant": "FSSSSQEAFAASAVASGERRGGGP", "note": "[G15A]", "protein stability index": 3.09}
{"variant": "FSSSSQEAFAASAVHSGERRGGGP", "note": "[G15H]", "protein stability index": 3.24}
{"variant": "FSSSSQEAFAASAVKSGERRGGGP", "note": "[G15K]", "protein stability index": 3.41}
{"variant": "FSSSSQEAFAASAVMSGERRGGGP", "note": "[G15M]", "protein stability index": 3.25}
{"variant": "FSSSSQEAFAASAVLSGERRGGGP", "note": "[G15L]", "protein stability index": 3.89}
{"variant": "FSSSSQEAFAASAVDSGERRGGGP", "note": "[G15D]", "protein stability index": 4.16}
{"variant": "FSSSSQEAFAASAVNSGERRGGGP", "note": "[G15N]", "protein stability index": 3.43}
{"variant": "FSSSSQEAFAASAVFSGERRGGGP", "note": "[G15F]", "protein stability index": 2.02}
{"variant": "FSSSSQEAFAASAVYSGERRGGGP", "note": "[G15Y]", "protein stability index": 2.58}
{"variant": "FSSSSQEAFAASAVESGERRGGGP", "note": "[G15E]", "protein stability index": 3.85}
{"variant": "FSSSSQEAFAASAVQSGERRGGGP", "note": "[G15Q]", "protein stability index": 3.26}
{"variant": "FSSSSQEAFAASAVWSGERRGGGP", "note": "[G15W]", "protein stability index": 2.72}
{"variant": "FSSSSQEAFAASAVISGERRGGGP", "note": "[G15I]", "protein stability index": 3.3}
{"variant": "FSSSSQEAFAASAVSSGERRGGGP", "note": "[G15S]", "protein stability index": 3.61}
{"variant": "FSSSSQEAFAASAVRSGERRGGGP", "note": "[G15R]", "protein stability index": 2.78}
{"variant": "FSSSSQEAFAASAVPSGERRGGGP", "note": "[G15P]", "protein stability index": 3.58}
{"variant": "FSSSSQEAFAASAVVSGERRGGGP", "note": "[G15V]", "protein stability index": 2.53}
{"variant": "FSSSSQEAFAASAVGSEERRGGGP", "note": "[G17E]", "protein stability index": 3.52}
{"variant": "FSSSSQEAFAASAVGSYERRGGGP", "note": "[G17Y]", "protein stability index": 3.45}
{"variant": "FSSSSQEAFAASAVGSKERRGGGP", "note": "[G17K]", "protein stability index": 2.63}
{"variant": "FSSSSQEAFAASAVGSFERRGGGP", "note": "[G17F]", "protein stability index": 3.18}
{"variant": "FSSSSQEAFAASAVGSSERRGGGP", "note": "[G17S]", "protein stability index": 3.39}
{"variant": "FSSSSQEAFAASAVGSQERRGGGP", "note": "[G17Q]", "protein stability index": 3.31}
{"variant": "FSSSSQEAFAASAVGSCERRGGGP", "note": "[G17C]", "protein stability index": 4.17}
{"variant": "FSSSSQEAFAASAVGSMERRGGGP", "note": "[G17M]", "protein stability index": 3.35}
{"variant": "FSSSSQEAFAASAVGSLERRGGGP", "note": "[G17L]", "protein stability index": 3.12}
{"variant": "FSSSSQEAFAASAVGSRERRGGGP", "note": "[G17R]", "protein stability index": 3.23}
{"variant": "FSSSSQEAFAASAVGSAERRGGGP", "note": "[G17A]", "protein stability index": 3.02}
{"variant": "FSSSSQEAFAASAVGSNERRGGGP", "note": "[G17N]", "protein stability index": 3.28}
{"variant": "FSSSSQEAFAASAVGSIERRGGGP", "note": "[G17I]", "protein stability index": 2.74}
{"variant": "FSSSSQEAFAASAVGSDERRGGGP", "note": "[G17D]", "protein stability index": 3.88}
{"variant": "FSSSSQEAFAASAVGSPERRGGGP", "note": "[G17P]", "protein stability index": 3.22}
{"variant": "FSSSSQEAFAASAVGSVERRGGGP", "note": "[G17V]", "protein stability index": 3.48}
{"variant": "FSSSSQEAFAASAVGSHERRGGGP", "note": "[G17H]", "protein stability index": 3.62}
{"variant": "FSSSSQEAFAASAVGSWERRGGGP", "note": "[G17W]", "protein stability index": 2.85}
{"variant": "FSSSSQEAFAASAVGSTERRGGGP", "note": "[G17T]", "protein stability index": 3.08}
{"variant": "FSSSSQEAFAASAVGSGEKRGGGP", "note": "[R19K]", "protein stability index": 3.41}
{"variant": "FSSSSQEAFAASAVGSGEGRGGGP", "note": "[R19G]", "protein stability index": 3.82}
{"variant": "FSSSSQEAFAASAVGSGEARGGGP", "note": "[R19A]", "protein stability index": 3.43}
{"variant": "FSSSSQEAFAASAVGSGELRGGGP", "note": "[R19L]", "protein stability index": 2.87}
{"variant": "FSSSSQEAFAASAVGSGEMRGGGP", "note": "[R19M]", "protein stability index": 3.35}
{"variant": "FSSSSQEAFAASAVGSGEFRGGGP", "note": "[R19F]", "protein stability index": 3.15}
{"variant": "FSSSSQEAFAASAVGSGEIRGGGP", "note": "[R19I]", "protein stability index": 3.23}
{"variant": "FSSSSQEAFAASAVGSGECRGGGP", "note": "[R19C]", "protein stability index": 3.07}
{"variant": "FSSSSQEAFAASAVGSGEERGGGP", "note": "[R19E]", "protein stability index": 4.24}
{"variant": "FSSSSQEAFAASAVGSGEDRGGGP", "note": "[R19D]", "protein stability index": 2.53}
{"variant": "FSSSSQEAFAASAVGSGENRGGGP", "note": "[R19N]", "protein stability index": 3.49}
{"variant": "FSSSSQEAFAASAVGSGEHRGGGP", "note": "[R19H]", "protein stability index": 3.34}
{"variant": "FSSSSQEAFAASAVGSGEPRGGGP", "note": "[R19P]", "protein stability index": 3.36}
{"variant": "FSSSSQEAFAASAVGSGEQRGGGP", "note": "[R19Q]", "protein stability index": 3.47}
{"variant": "FSSSSQEAFAASAVGGGERRGGGP", "note": "[S16G]", "protein stability index": 3.18}
{"variant": "FSSSSQEAFAASAVGMGERRGGGP", "note": "[S16M]", "protein stability index": 3.37}
{"variant": "FSSSSQEAFAASAVGTGERRGGGP", "note": "[S16T]", "protein stability index": 3.61}
{"variant": "FSSSSQEAFAASAVGEGERRGGGP", "note": "[S16E]", "protein stability index": 4.25}
{"variant": "FSSSSQEAFAASAVGLGERRGGGP", "note": "[S16L]", "protein stability index": 2.75}
{"variant": "FSSSSQEAFAASAVGNGERRGGGP", "note": "[S16N]", "protein stability index": 3.38}
{"variant": "FSSSSQEAFAASAVGWGERRGGGP", "note": "[S16W]", "protein stability index": 2.17}
{"variant": "FSSSSQEAFAASAVGIGERRGGGP", "note": "[S16I]", "protein stability index": 3.06}
{"variant": "FSSSSQEAFAASAVGHGERRGGGP", "note": "[S16H]", "protein stability index": 3.27}
{"variant": "FSSSSQEAFAASAVGFGERRGGGP", "note": "[S16F]", "protein stability index": 2.4}
{"variant": "FSSSSQEAFAASAVGQGERRGGGP", "note": "[S16Q]", "protein stability index": 2.96}
{"variant": "FSSSSQEAFAASAVGYGERRGGGP", "note": "[S16Y]", "protein stability index": 2.96}
{"variant": "FSSSSQEAFAASAVGPGERRGGGP", "note": "[S16P]", "protein stability index": 3.4}
{"variant": "FSSSSQEAFAASAVGDGERRGGGP", "note": "[S16D]", "protein stability index": 3.63}
{"variant": "FSSSSQEAFAASAVGVGERRGGGP", "note": "[S16V]", "protein stability index": 3.52}
{"variant": "FSSSSQEAFAASAVGAGERRGGGP", "note": "[S16A]", "protein stability index": 3.29}
{"variant": "FSSSSQEAFAASAVGRGERRGGGP", "note": "[S16R]", "protein stability index": 3.35}
{"variant": "FSSSSQEAFAASAVGKGERRGGGP", "note": "[S16K]", "protein stability index": 3.34}
{"variant": "FSSSSQEAFAASAWGSGERRGGGP", "note": "[V14W]", "protein stability index": 1.32}
{"variant": "FSSSSQEAFAASASGSGERRGGGP", "note": "[V14S]", "protein stability index": 3.25}
{"variant": "FSSSSQEAFAASATGSGERRGGGP", "note": "[V14T]", "protein stability index": 3.27}
{"variant": "FSSSSQEAFAASAYGSGERRGGGP", "note": "[V14Y]", "protein stability index": 2.76}
{"variant": "FSSSSQEAFAASAQGSGERRGGGP", "note": "[V14Q]", "protein stability index": 3.52}
{"variant": "FSSSSQEAFAASARGSGERRGGGP", "note": "[V14R]", "protein stability index": 3.65}
{"variant": "FSSSSQEAFAASAVGSGFRRGGGP", "note": "[E18F]", "protein stability index": 2.86}
{"variant": "FSSSSQEAFAASAVGSGGRRGGGP", "note": "[E18G]", "protein stability index": 3.84}
{"variant": "FSSSSQEAFAASAVGSGDRRGGGP", "note": "[E18D]", "protein stability index": 2.98}
{"variant": "FSSSSQEAFAASAVGSGHRRGGGP", "note": "[E18H]", "protein stability index": 3.65}
{"variant": "FSSSSQEAFAASAVGSGIRRGGGP", "note": "[E18I]", "protein stability index": 2.36}
{"variant": "FSSSSQEAFAASAVGSGPRRGGGP", "note": "[E18P]", "protein stability index": 2.97}
{"variant": "FSSSSQEAFAASAVGSGSRRGGGP", "note": "[E18S]", "protein stability index": 2.28}
{"variant": "FSSSSQEAFAASAVGSGVRRGGGP", "note": "[E18V]", "protein stability index": 2.49}
{"variant": "FSSSSQEAFAASAVGSGQRRGGGP", "note": "[E18Q]", "protein stability index": 3.24}
{"variant": "FSSSSQEAFAASAVGSGLRRGGGP", "note": "[E18L]", "protein stability index": 2.85}
{"variant": "FSSSSQEAFAASAVGSGNRRGGGP", "note": "[E18N]", "protein stability index": 2.55}
{"variant": "FSSSSQEAFAASAVGSGCRRGGGP", "note": "[E18C]", "protein stability index": 2.96}
{"variant": "FSSSSQEAFAASAVGSGTRRGGGP", "note": "[E18T]", "protein stability index": 2.87}
{"variant": "FSSSSQEAFAASAVGSGYRRGGGP", "note": "[E18Y]", "protein stability index": 2.69}
{"variant": "FSSSSQEAFAASAVGSGARRGGGP", "note": "[E18A]", "protein stability index": 3.48}
{"variant": "FSSSSQEAFAASAVGSGKRRGGGP", "note": "[E18K]", "protein stability index": 3.31}
{"variant": "FSSSSQEAFAASAVGSGMRRGGGP", "note": "[E18M]", "protein stability index": 2.96}
{"variant": "FSSSSQEAFAASAVGSGWRRGGGP", "note": "[E18W]", "protein stability index": 2.92}
